Test results reported in patent publication US20140105905A1 (Amgen, published 2014).

T1: recombinant human Interleukin-8 (human, UniProt P10145 28-99)
T1 construct: also called rhIL-8; IL-8
T1 sequence (looked up): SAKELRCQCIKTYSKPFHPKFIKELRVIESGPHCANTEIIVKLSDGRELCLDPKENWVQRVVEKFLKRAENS

T2: IL-8 peptide ELRCQCIKTYSK (human)
T2 peptide: ELRCQCIKTYSK


Experiments:
[1] = target: T1, recombinant human Interleukin-8; assay: not named in this sentence (summary of the filing's own affinity results)
[2] = target: T1, recombinant human Interleukin-8; assay: calculated from KinExA kon and Kd
Source text: (§1) For measuring the association rate constant using KinExA, the same rhIL-8-coupled beads were used as the probe and the “Kinetics, Direct” method was used. The “Kinetics, Direct” experiments by KinExA are identical to KinExA equilibrium assays with respect to bead column height, antibody capture, antibody concentration and antibody detection. Briefly, the mAb was mixed with an amount of antigen that bound approximately 80% of the mAb in the equilibrium experiments and the free antibody present in the sample was probed repeatedly, pre-equilibrium. […] The volumes and flow rates of the antigen-mAb mixtures and the Cy5-labeled secondary antibody were varied depending upon the mAb tested. Data was analyzed utilizing the KinExA analysis software that comes with the KinExA 3000 instrument. This software graphically represents the decrease in binding signals over time, and fits the collected data points to an exact solution of the kinetic differential equations for binding. From this curve, an optimal solution for the kₒₙ is determined. The koff is indirectly calculated from solutions for the kₒₙ and Kd.
(§2) The on-rate measurement by KinExA is not limited by the mAb concentration used in the experiment. […] The concentration of mAb used for on-rate experiments was the same as those used in equilibrium binding experiments. An amount of IL-8 that bound 80% of the mAb in equilibrium binding experiments was mixed with the mAb. The amount of free mAb left in the mixture was measured in KinExA by flowing 1 ml of the mixture repeatedly through rhIL-8 coupled to NHS-activated Sepharose beads and detected using 1 ml of 2.0 μg/ml of Cy5-labeled goat anti-human IgG Fcγ fragment-specific secondary antibody. The kₒₙ was measured using the KinExA software by the “Kinetic, Direct” method and the 95% confidence intervals are given as kₒₙ range. The koff for the mAb was calculated from the measured kₒₙ and Kd of the respective mAb.

[3] = target: T1, recombinant human Interleukin-8; assay: KinExA equilibrium, optimized, n-curve analysis, mAb 18 and 120 pM
Source text: (§3) The mixture was drawn through the rhIL-8-coupled beads to accumulate unbound antibody. The captured anti-hIL-8 mAb is directly proportional to the remaining free binding sites and was detected using solutions containing Cy5-conjugated anti-human secondary antibody in sample buffer. The concentrations, volumes, and flow rates of the secondary antibody solutions were varied to optimize the signal to noise ratio in each experiment. The bound signals were converted into relative values as a proportion of control in the absence of rhIL-8. The equilibrium dissociation constant (Kd) was obtained from nonlinear regression analysis of the data using a one-site homogeneous binding model contained within the software [Blake et Al., Anal. Biochem. 272:123, 1999; Jones et al., Bioconjug Chem 13:408, 2002]. […]
(§4) A proportionate amount of free mAb present in the equilibrium mixture was measured in KinExA under optimized conditions. For example, for the mixtures containing the low concentration of mAb, 18-36 ml of the sample was flown through rhIL-8 coupled to NHS-activated Sepharose beads and detected using 1-2 ml of 2.0 μg/ml of Cy5-labeled goat anti-human IgG Fcγ fragment-specific secondary antibody. The Kd was calculated using KinExA software by using the “n-curve analysis” selection.

[4] = target: T1, recombinant human Interleukin-8; assay: KinExA "Kinetics, Direct" method
Source text: as §1, §2

[5] = target: T2, IL-8 peptide ELRCQCIKTYSK; assay: overlapping IL-8 peptides on a membrane; column "Recognized epitope"
Procedure: Briefly, overlapping IL-8 peptides, which were each two amino acids c-terminal to the previous peptide (as shown in FIG. 8) were prepared and attached to a membrane. Antibodies were then added and allowed to bind to the peptides.

[6] = target: T1, recombinant human Interleukin-8; assay: KinExA equilibrium in solution, 36 h, mAb 90 pM
Procedure: as §3, with “The experiments with KinExA were performed using an automated flow immunoassay system, KinExA 3000 [Ohmura et al., Anal. Chem. 73:3392, 2001] in which rhIL-8-coupled beads served as the solid phase. […] Antigen/antibody complexes were incubated at RT for 36 h to 144 h to allow equilibrium to be reached. The mixture” for “The mixture”
(§5) A proportionate amount of free mAb present in the equilibrium mixture was measured by flowing 0.25 ml to 3 ml of the sample on rhIL-8 coupled to CNBr-activated Sepharose beads and detected using 1.0 ml of 1.7 μg/ml of Cy5-labeled goat anti-human IgG Fcγ fragment-specific secondary antibody. […]

[7] = target: T1, recombinant human Interleukin-8; assay: KinExA equilibrium in solution, 36 h, mAb 100 pM
Procedure: as §3, with “The experiments with KinExA were performed using an automated flow immunoassay system, KinExA 3000 [Ohmura et al., Anal. Chem. 73:3392, 2001] in which rhIL-8-coupled beads served as the solid phase. […] Antigen/antibody complexes were incubated at RT for 36 h to 144 h to allow equilibrium to be reached. The mixture” for “The mixture”
as §5

[8] = target: T1, recombinant human Interleukin-8; assay: KinExA equilibrium in solution, 36 h, mAb 25 pM
Procedure: (§6) The experiments with KinExA were performed using an automated flow immunoassay system, KinExA 3000 [Ohmura et al., Anal. Chem. 73:3392, 2001] in which rhIL-8-coupled beads served as the solid phase. […] Antigen/antibody complexes were incubated at RT for 36 h to 144 h to allow equilibrium to be reached. The mixture was drawn through the rhIL-8-coupled beads to accumulate unbound antibody. The captured anti-hIL-8 mAb is directly proportional to the remaining free binding sites and was detected using solutions containing Cy5-conjugated anti-human secondary antibody in sample buffer. The concentrations, volumes, and flow rates of the secondary antibody solutions were varied to optimize the signal to noise ratio in each experiment. The bound signals were converted into relative values as a proportion of control in the absence of rhIL-8. The equilibrium dissociation constant (Kd) was obtained from nonlinear regression analysis of the data using a one-site homogeneous binding model contained within the software [Blake et Al., Anal. Biochem. 272:123, 1999; Jones et al., Bioconjug Chem 13:408, 2002]. The software calculates the Kd and determines the 95% confidence interval by fitting the data points to a theoretical Kd curve. The 95% confidence interval is given as Kd low and Kd high.
A proportionate amount of free mAb present in the equilibrium mixture was measured by flowing 0.25 ml to 3 ml of the sample on rhIL-8 coupled to CNBr-activated Sepharose beads and detected using 1.0 ml of 1.7 μg/ml of Cy5-labeled goat anti-human IgG Fcγ fragment-specific secondary antibody. Each sample was run in triplicate. The Kd was calculated by the KinExA software and the 95% confidence interval is given as the Kd range.

[9] = target: T1, recombinant human Interleukin-8; assay: KinExA equilibrium in solution, 36 h, mAb 200 pM
Procedure: as §6, with “The software calculates the Kd and determines the 95% confidence interval by fitting the data points to a theoretical Kd curve. The 95% confidence interval is given as Kd low and Kd high.” left out
as §5

[10] = target: T1, recombinant human Interleukin-8; assay: KinExA equilibrium, optimized, n-curve analysis, mAb 1.3 and 13 pM
Source text: as §3, §4

[11] = target: T1, recombinant human Interleukin-8; assay: KinExA equilibrium in solution, 36 h, mAb 10 pM
Procedure: as §6, with “The software calculates the Kd and determines the 95% confidence interval by fitting the data points to a theoretical Kd curve. The 95% confidence interval is given as Kd low and Kd high.” left out
as §5

[12] = target: T1, recombinant human Interleukin-8; assay: KinExA equilibrium in solution, 36 h, mAb 23 pM
Procedure: as §6, with “The software calculates the Kd and determines the 95% confidence interval by fitting the data points to a theoretical Kd curve. The 95% confidence interval is given as Kd low and Kd high.” left out
as §5

[13] = target: T1, recombinant human Interleukin-8; assay: KinExA equilibrium, optimized, n-curve analysis, mAb 4.6 and 27 pM
Source text: as §3, §4

Binder | Kd [1] [nM] | koff [2] [s⁻¹] | kon [4] [M⁻¹ s⁻¹] | Kd [8] [nM] | other results
anti-hIL-8 mAb 837 (antibody, human IgG2, V domains shown, also called clone 36C6; ABXha-IL-8) VH: QVQLQQWGAGLLKPSETLSLTCAVFGGTFSGYYWTWIRQPPGKGLEWIGEVIHHGSTNYSPSLKSRVTISADTSKSQFSLRLSSVTAADTAVYYCARGGAAAALDSWGQGTLVIVSS VL: not shown | ~0.0109 | 1.9e-05 | 1.1e+06 |  | Kd [3]: 0.0157 nM; binding result [5]: binds; Kd [6]: 0.011 nM
anti-hIL-8 mAb 1093 (antibody, human IgG2, V domains shown, also called antibody number 1093) VH: QVQLQQWGAGLLKPSETLSLTCAVFGGSFSGYYWTWIRQPPGKGLEWIGEIIHHGSTNYSPSLKSRVTISADTSKSQFSLRLSSVTAADTAVYYCARGGAAAGLDSWGQGTLVTVSS VL: not shown |  |  |  |  | Kd [7]: 0.2 nM
anti-hIL-8 mAb 1080 (antibody, human IgG2, V domains shown) VH: QVQLQQWGAGLLKPSESLSLTCAVYGGSFFSGYYWSWIRQPPGKGLEWIGEITHSGNTNYNPSLKSRVSISVDTSTNQFSLKLSSVTAADTAVYYCGRGGAEVGFDYWGQGTLVTVSS VL: not shown |  |  |  | 0.63 | 
anti-hIL-8 mAb 469 (antibody, human IgG2, V domains shown, also called antibody number 469) VH: EVQLLESGGGLVQPGGSLRLSCAASGFTFSSYVMSWVRQAPGKGLEWVSAINNSGGSTDYADSVKGRFTISRDNSKNTLYLQMNSLRAEDTAVYYCAKEGRFLEWSLYGLDVWGQGTTVTVSS VL: DIQMTQSPSSLSASVGDRVTIACRASQGIRNDLGWYQQKPGKAPKRLIYAASSLQSGVPSRFGGSGSGTEFTLTISSLQPEDFATYYCLQHNSYPRTFGQGTKVEIK |  |  |  |  | Kd [9]: 0.87 nM
anti-hIL-8 mAb 861 (antibody, human IgG2, V domains shown, also called antibody number 861) VH: QVQLVESGGGVVQPGRSLRLSCAASGFTFSNYGMHWVRQAPGKGLEWVAVIYFEGSNKYNADSVKGRFTISRDNSKNTLYLQMNSLRAEDTAVYYCARSPYGDYLDYWGQGTLVTVSS VL: EIVLTQSPGTLSLSPGERATLSCRASQTIDYNYLHWYQQKPGQAPRLLIYGTFIRATVIPDRFSGSGSGTDFTLTISRLEPEDIAVYYCQQFGRSPLTFGGGTKVEIK | ~0.00289 | 1.3e-05 | 4.4e+06 | 0.0029 | Kd [10]: 0.003 nM
anti-hIL-8 mAb 33 (antibody, human IgG2, V domains shown, also called antibody number 33) VH: QVQLQQWGAGLLKPSETLSLTCAVYGGFFSGYYWSWIRQPPGKGLEWIGEINHSGSTNYNPSLKSRVTISVDTSKNQFSLKLISVTAADTAVYYCARGSAAEAFDIWGQGTMVTVSS VL: not shown |  |  |  |  | Kd [11]: 0.28 nM
anti-hIL-8 mAb 142 (antibody, human IgG2, V domains shown, also called antibody number 142) VH: QVQLVQSGAEVKKPGASVKVSCKASGYTFTGYYMHWVRQAPGQGLEWMGWINSNSGGTNYSQKFQGRVTMTRDTSISTVYMELSRLRSDDTAVYYCASGYSYGYRYYYYGMDVWGQGTTVTVSS VL: DIQMTQSPSSLSASVGDRVTITCRASQGISNSLAWYQQKPGKVPNLLIYAASTLQSGVPSRFSGSGSGTDFTLTISSLQPEDVATYYCQKYNSVPLTFGGGTKVEIK |  |  |  | 0.4 | 
anti-hIL-8 mAb 203 (antibody, human IgG2, V domains shown, also called antibody number 203) VH: QVQLVQSGAEVKKPGASVKVSCKASGYTFTGYYIHWVRQAPGQGLEWMGWINSNSGGTNFAQKFQGRVTMTRDTSISTAYMELSRLRPDDTAVYYCASGYRYGYRYYYYGMDVWGQGTTVTVSS VL: DIQMTQSPSSLSASVGDRVTITCRASQGISNSLAWYQQKPGKVPKLLIYAASTLQSGVPSRFSGSGSGTDFTLTISSLQPEDVATYYCQKYNSVPLTFGGGTKVEIN |  |  |  | 0.19 | 
anti-hIL-8 mAb 809 (antibody, human IgG2, V domains shown, also called clone 6G11) VH: QVQLVESGGGVVQPGRSLRLSCAASGFTFSSYGMLWVRQAPGKGLEWVADISYDGSNKYYADSVKGRFTISRDNSKNTLFLQMNSLRAEDTAVYYCARDRIAVADYWGQGTLVTVSS VL: not shown | ~0.00223 | 1.6e-05 | 4.8e+06 |  | Kd [12]: 0.0022 nM; binding result [5]: binds; Kd [13]: 0.00329 nM
